Data: patent EP1644414B1
Residue numbers refer to the chain shown, from its start.

Experiments:
[1] = biological target: UV-inactivated SARS-CoV preparation (Frankfurt 1 strain) (SARS-CoV strain Frankfurt 1); assay: phage ELISA, plate 3 (no phage 0.054)
[2] = biological target: UV-inactivated SARS-CoV preparation (Frankfurt 1 strain) (SARS-CoV strain Frankfurt 1); assay: phage ELISA, plate 2 (no phage 0.211)
[3] = biological target: UV-inactivated SARS-CoV preparation (Frankfurt 1 strain) (SARS-CoV strain Frankfurt 1); assay: phage ELISA, plate 4 (no phage 0.051)

B1: SC03-034 (scFv)
scFv: AMAEVQLVQSGAEVKKPGESLKISCKGSGYGFITYWIGWVRQMPGKGLEWMGIIYPGDSETRYSPSFQGQVTISADKSINTAYLQWSSLKASDTAIYYCAGGSGISTPMDVWGQGTTVTVSSGTGGSGGTGSGTGGSTDVVMTQSPDSLAVSLGERATINCKSSQSILNRSNNKNYLAWYQQKPGQPPKLLIYWASTRESGVPDRFSGSGSGTDFNLTISSLQAEDVAVYYCQQYNNWPLTFGGGTKVDIKRAA
OD492nm [1]: 0.802 OD492nm

B2: SC03-055 (scFv)
scFv: AMAQVQLQQWGAGLLKPSETLSLTCAVYGGSFSGFYWSWIRQPPGKGLEWIGEINHSGSTNYNPSLKSRVTISADTSKNQFSLKLSSVTAADTAVYYCARRVEVVEYQLLRPRYKSWFDPWGQGTLVTVSSGTGGSGGTGSGTGGSTQSVLTQPPSVSGAPGQRVSISCSGSGANGGTDPVSWYQKFPGTAPHLLIYDNNKRPSGIPDRFSGSKSGASATLDITGLQTGDEADYYCGAWDPSLSGYVFGTGTQLTVLSAA
OD492nm [1]: 0.608 OD492nm

B3: SC03-024 (scFv)
scFv: AMAQVQLVESGSELKIPGASVKVSCKATGYTFTRYSLNWVRQAPGQGLEWVGWINTQTGNSNYGQAFSGRFVFSLDTSVSTAYLQISSLQAEDTATYYCARKSAGSNAFDIWGQGTMVTVSSGTGGSGGTGSGTGGSTQSVVTQPPSVSAAPGQKATISCSGSSSNIGNNYVSWYQQLPGTAPKLLIYDNNKRPSGIPNRFSGSKSGTSATLGITGLQTGDEADYYCGTWDSSLSAYVFGTGTKVTVLGAA
OD492nm [2]: 0.235 OD492nm

B4: SC03-025 (scFv)
scFv: AMAEVQLVESGGGLVQPGGSLRLSCAASGFTFSSYAMHWVRQAPGKGLEYVSGISSNGGSTYYANSVKGRFTISRDNSKNTLYLQMGSLRAEDMAVYYCARTTNRAFDIWGQGTMVTVSSGTGGSGGTGSGTGGSTDIQLTQSPDSLAVSLGERATINCKSSQSVLYSSNNKNYLAWYQQKPGQPPKLLIYWASIRESGVPDRFSGSGSGTDFTLTISSLQAEDVAVYYCQQYYNIPYAFGQGTKLEIKRAA
OD492nm [2]: 1.64 OD492nm

B5: SC03-040 (scFv)
scFv: B4 scFv with E4Q, E9Q, L140M, K160R, I195T, N235S, I236S, A239S
OD492nm [3]: 0.616 OD492nm

B6: SC03-054 (scFv)
scFv: B4 scFv with E9Q, L14V, G19R, I195T, S207G, N235S, I236T, A239S, L246V
OD492nm [3]: 0.428 OD492nm

B7: SC03-043 (scFv)
scFv: B4 scFv with E4Q, E9Q, S168R, I195T, P201S, D202E, N235S, I236T, A239S
OD492nm [1]: 1.27 OD492nm

B8: SC03-044 (scFv)
scFv: B4 scFv with S10T, L140M, I195T, S205R, V225L, N235S, I236T, A239S
OD492nm [3]: 0.518 OD492nm

B9: SC03-023 (scFv)
scFv: AMAQVQLQQWGAGLLKPSETLSLTCAVYGGSFSGFYWSWIRQPPGKGLEWIGEINHSGSTNYNPSLKSRVTISVDTSKNQFSLKLSSVTAADTAVYYCARRVEVVEYQLLRPRYKSWFDPWGQGTLVTVSSGTGGSGGTGSGTGGSTQSALTQPRSVSGSPGQSVTISCTGSSSTVGGYNYVSWYQQHPGKAPKLMIYDVSKRPSGVSNRFSGSKSGNTASLTISGLQAEDEADYYCSSYTSSSTYVFGTGTKVTVLGAA
OD492nm [2]: 1.31 OD492nm

B10: SC03-020 (scFv)
scFv: AMAEVQLVQSGSEVKKPGESLKISCKGSGYGFITYWIGWVRQMPGKGLEWMGIIYPGDSETRYSPSFQGQVTISADKSINTAYLQWSSLKASDTAIYYCAGGSGISTPMDVWGQGTTVTVSSGTGGSGGTGSGTGGSTDIQMTQSPDSLAVSLGERATINCKSSQKILHSSNNKNYLAWYQQKPGQPPKLLIYWASTRESGVPDRFSGSGSGTDFTLTISSLQAEDVAVYYCQQYYSTPPVFGGGTKVEIKRAA
OD492nm [2]: 0.671 OD492nm

B11: SC03-051 (scFv)
scFv: B10 scFv with E4Q, S12T, S164G, K166S, H169Y, N173D, P240Y, V241T, G244Q
OD492nm [1]: 0.602 OD492nm

B12: SC03-021 (scFv)
scFv: B10 scFv with E4Q, S12T, I140V, Q141V, K166S, I167V, E199Q, V241T, G244Q
OD492nm [2]: 0.215 OD492nm

B13: SC03-033 (scFv)
scFv: AMAQVQLVQSGTEVKKPGESLKISCKGSGYGFITYWIGWVRQMPGKGLEWMGIIYPGDSETRYSPSFQGQVTISADKSINTAYLQWSSLKASDTAIYYCAGGSGISTPMDVWGQGTTVTVSSGTGGSGGTGSGTGGSTDVVMTQSPDSLAVSLGERATINCKTSHNIFSRSNNKDYLAWYQQKPGQPPRLLIYWASTRASGVPERFSGSGSGTDFSLTISSLQAEDVAVYYCQQYYSSPMYSFGQGTKVEIKRAA
OD492nm [3]: 0.288 OD492nm

B14: SC03-031 (scFv)
scFv: AMAQVQLVQSGADVKKPGSSVKVSCEASGGTFSSYAISWVRQAPGQGLEWMGRIIPILGITNYAQKFQGRVTITADKSTGTGNMELSSLRSEDTAVYYCARESGGGYDNHFDYWGQGTLVTVSSGTGGSGGTGSGTGGSTQSVLTQPPSASGTPGQRVTISCSGGSSNIGSNTVNWYQQLPGTAPKLVIYANNQRPSGVPDRFSASKSGTSASLAISGLQSEDEADYYCAAWDDSLTGGVFGGGTQLTVLSAA
OD492nm [3]: 0.635 OD492nm

B15: SC03-026 (scFv)
scFv: AMAQVQLVQSGGGLVQPGGSLRLSCAASGFTFSSYAMHWVRQAPGKGLEYVSGISSNGGSTYYANSVKGRFTISRDNSKNTLYLQMGSLRAEDMAVYYCARTTNRAFDIWGQGTMVTVSSGTGGSGGTGSGTGGSTDIQMTQSPDSLAVSLGERATINCKSSQSILYSSNSKNYLGWYQQKPGQPPKLLIYWASTRESGVPDRFSGSGSGTDFTLTISSLQAEDVAVYYCQQYYSTPYSFGQGTKVEIKRAA
OD492nm [2]: 1.07 OD492nm

B16: SC03-046 (scFv)
scFv: B15 scFv with Q4E, I138V, Q139V, I165V, S171N, G176A, T214S, T236P, S239T, Q242P
OD492nm [1]: 1.9 OD492nm

B17: SC03-037 (scFv)
scFv: AMAKVQLVQSGGGLIQPGGSLRLSCAASGFTVSSNYMSWVRQAPGKGLEWVSIVFSGGSTYYADSVKGRFTISRDNSKNTLYLQMNSLRAEDTAVYYCARDAHRGFGMDVWGQGTTVTVSSGTGGSGGTGSGTGGSTSSELTQDPAVSVALGQTVRITCQGDSLRSYYASWYQQKPGQAPVLVIYGKNNRPSGIPDRFSGSSSGNTASLTITGAQAEDEADYYCNGRDSSGNHWVFGGGTKLTVLGAA
OD492nm [3]: 0.287 OD492nm

B18: SC03-038 (scFv)
scFv: B17 scFv with K4E, N205D, G226S
OD492nm [3]: 0.314 OD492nm

B19: SC03-039 (scFv)
scFv: AMAEVQLVESGGGLVQPGGSLRLSCAASGFTFSSYAMSWVRQAPGKGLEWVSVIYSGGTSTYYADSVKGRFTISRDNSKNTLYLQMNSLRAEDTAVYFCAKGSKWNDVGGGDYWGQGTLVTVSSGTGGSGGTGSGTGGSTNFMLTQPHSVSESPGKTVTISCAGSSGSIASNYVQWYQQRPGSAPTTVIYEDNQRPSGVPDRFSGSIDSSSNSASLTISGLKTEDEADYYCQSYDGYLWIFGGGTKLTVLGAA
OD492nm [1]: 0.851 OD492nm

B20: SC03-057 (scFv)
scFv: AMAQVQLVQSGAEVKKPGSSVKVSCKASGGTFSRYAISWVRQAPGQGLEWMGRINPILNLTNYAQKFQGRVTITADKSTSTAYMEMSSLRSEDTAIYYCASPDIVVAGHASPPHYTMDVWGQGTTVTVSSGTGGSGGTGSGTGGSTDIQMTQSPSSLSASVGDRVTITCRASQGIRNDLGWYQQKPGKAPNLLIYQASALQSGVPSRFSGSESGAEFTLTISSLHPDDFATYYCQQYHDFPITFGQGTRLEIKRAA
OD492nm [1]: 1.19 OD492nm

B21: SC03-036 (scFv)
scFv: AMAEVQLVQSGTEVKKPGESLKISCKGSGYGFITYWIGWVRQMPGKGLEWMGIIYPGDSETRYSPSFQGQVTISADKSINTAYLQWSSLKASDTAIYYCAGGSGISTPMDVWGQGTTVTVSSGTGGSGGTGSGTGGSTDIQMTQSPDSLAVSLGERATINCKSSQSVLHSPNNKNYLAWYQQKPGQPPKLLIYWASTRESGVPDRFSGSGSGTDFTLTISSLQAEDVAVYYCQQYYSTNSFGQGTKLEIKRAA
OD492nm [1]: 0.24 OD492nm
